Experimental data as given in US20140175018A1 (published 2014).
Blank lines part the entries; values can stand above or below the binder they belong to. Bridge positions count the residues as written; N and C are the ends. Square brackets hold non-standard residues; d marks the D form. Side chains are listed from the residue outwards. * marks the point of attachment. Biotin = O=C1N[C@H]2[C@H](CS[C@H]2CCCCC(=O)*)N1; pGlu = O=C1CC[C@@H](C(=O)O)N1; Nle = CCCC[C@H](N)C(=O)O; PEG = not defined here

Legend:
[1] = biological target: T1, chemokine (C-C motif) receptor 9 (CCR9) (human, UniProt P51686 1-369); assay: flow cytometry; labelled chemokine on fixed blood leukocytes
T1 construct: whole, on cells; also called hCCR9; TECK receptor
T1 sequence (looked up): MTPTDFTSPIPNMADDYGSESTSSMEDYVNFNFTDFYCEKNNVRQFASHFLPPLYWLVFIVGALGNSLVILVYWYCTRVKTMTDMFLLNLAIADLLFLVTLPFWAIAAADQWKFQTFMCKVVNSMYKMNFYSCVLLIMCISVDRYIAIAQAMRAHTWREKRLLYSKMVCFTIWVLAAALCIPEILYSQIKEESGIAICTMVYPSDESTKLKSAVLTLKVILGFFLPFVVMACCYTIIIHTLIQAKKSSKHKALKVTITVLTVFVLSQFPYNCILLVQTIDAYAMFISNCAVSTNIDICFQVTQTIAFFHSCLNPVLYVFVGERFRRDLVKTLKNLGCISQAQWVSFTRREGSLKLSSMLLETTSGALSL

[2] = biological target: T2, chemokine (C-C motif) receptor 7 (CCR7) (human, UniProt P32248 25-378); assay: cell-based or functional assay
T2 sequence (looked up): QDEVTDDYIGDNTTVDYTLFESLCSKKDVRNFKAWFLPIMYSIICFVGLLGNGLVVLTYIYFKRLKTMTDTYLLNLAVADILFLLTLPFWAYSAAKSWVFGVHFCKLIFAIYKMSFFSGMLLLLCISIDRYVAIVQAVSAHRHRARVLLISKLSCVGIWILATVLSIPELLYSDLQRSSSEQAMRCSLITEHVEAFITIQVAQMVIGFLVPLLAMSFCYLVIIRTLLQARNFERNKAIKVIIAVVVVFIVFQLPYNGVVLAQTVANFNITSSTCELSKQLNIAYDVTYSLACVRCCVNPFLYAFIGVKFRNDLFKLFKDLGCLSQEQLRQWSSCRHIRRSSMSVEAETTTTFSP

[3] = biological target: T3, chemokine (C-C motif) receptor 3 (CCR3) (human, UniProt P51677 1-355); assay: flow cytometry; eotaxin binding compared with anti-CCR3 staining of neutrophils/eosinophils
T3 construct: whole, on cells; also called hCCR3
T3 sequence (looked up): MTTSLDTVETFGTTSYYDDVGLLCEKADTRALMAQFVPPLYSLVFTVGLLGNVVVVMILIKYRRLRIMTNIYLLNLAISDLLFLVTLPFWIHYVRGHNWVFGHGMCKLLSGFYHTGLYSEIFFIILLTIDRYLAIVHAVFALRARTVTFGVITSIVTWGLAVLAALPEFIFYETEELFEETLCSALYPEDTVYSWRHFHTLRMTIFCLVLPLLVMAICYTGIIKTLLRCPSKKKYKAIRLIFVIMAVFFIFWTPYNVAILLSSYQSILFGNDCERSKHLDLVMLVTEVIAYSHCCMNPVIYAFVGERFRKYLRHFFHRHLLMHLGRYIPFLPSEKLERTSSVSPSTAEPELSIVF

[4] = biological target: T1, chemokine (C-C motif) receptor 9 (CCR9); assay: cell-based or functional assay
[5] = biological target: T4, chemokine (C-C motif) receptor 4 (CCR4) (human, UniProt P51679 1-360); assay: cell-based or functional assay
T4 sequence (looked up): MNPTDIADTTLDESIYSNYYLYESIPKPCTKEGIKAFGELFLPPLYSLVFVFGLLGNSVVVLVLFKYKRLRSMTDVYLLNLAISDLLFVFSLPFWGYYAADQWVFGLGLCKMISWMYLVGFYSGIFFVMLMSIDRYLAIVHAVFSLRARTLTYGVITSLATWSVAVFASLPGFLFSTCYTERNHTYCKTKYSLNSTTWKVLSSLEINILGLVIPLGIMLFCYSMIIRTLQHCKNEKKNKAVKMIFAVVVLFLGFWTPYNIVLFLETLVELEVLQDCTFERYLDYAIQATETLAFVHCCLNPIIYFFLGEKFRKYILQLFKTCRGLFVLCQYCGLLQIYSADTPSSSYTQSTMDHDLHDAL

[6] = biological target: T5, chemokine (C-C motif) receptor 5 (CCR5) (human, UniProt P51681 1-352); assay: blood passed through chemokine-coupled column; flow cytometry before and after
T5 construct: whole, on cells; also called hCCR5

[7] = biological target: T6, chemokine (C-C motif) receptor 1 (CCR1) (human, UniProt P32246 1-355); assay: as above
T6 construct: whole, on cells
T6 sequence (looked up): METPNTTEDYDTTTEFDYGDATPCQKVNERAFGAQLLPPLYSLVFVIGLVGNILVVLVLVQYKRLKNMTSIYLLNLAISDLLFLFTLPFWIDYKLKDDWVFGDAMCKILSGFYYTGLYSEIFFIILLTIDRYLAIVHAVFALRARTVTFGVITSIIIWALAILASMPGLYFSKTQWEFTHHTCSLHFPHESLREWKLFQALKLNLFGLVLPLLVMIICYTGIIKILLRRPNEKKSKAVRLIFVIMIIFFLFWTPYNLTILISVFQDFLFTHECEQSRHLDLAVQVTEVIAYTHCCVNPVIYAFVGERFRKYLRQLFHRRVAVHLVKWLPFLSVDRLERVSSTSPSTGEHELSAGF

[8] = biological target: T5, chemokine (C-C motif) receptor 5 (CCR5); assay: cell-based or functional assay
hCCR2b = biological target: T7, hCCR2b (human, UniProt P41597 1-374); assay: cell-based or functional assay
T7 chain: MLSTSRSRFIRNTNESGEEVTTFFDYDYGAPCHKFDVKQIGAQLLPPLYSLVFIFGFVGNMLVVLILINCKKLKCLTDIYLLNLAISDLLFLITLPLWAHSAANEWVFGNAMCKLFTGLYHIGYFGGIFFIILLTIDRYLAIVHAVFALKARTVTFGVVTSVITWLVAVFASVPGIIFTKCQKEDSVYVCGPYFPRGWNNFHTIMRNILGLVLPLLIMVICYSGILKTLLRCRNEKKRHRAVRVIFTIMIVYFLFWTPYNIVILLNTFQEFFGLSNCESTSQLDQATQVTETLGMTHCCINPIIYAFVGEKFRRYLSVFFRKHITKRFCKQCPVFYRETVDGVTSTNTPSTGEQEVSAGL

T5 sequence (P51681 whole entry): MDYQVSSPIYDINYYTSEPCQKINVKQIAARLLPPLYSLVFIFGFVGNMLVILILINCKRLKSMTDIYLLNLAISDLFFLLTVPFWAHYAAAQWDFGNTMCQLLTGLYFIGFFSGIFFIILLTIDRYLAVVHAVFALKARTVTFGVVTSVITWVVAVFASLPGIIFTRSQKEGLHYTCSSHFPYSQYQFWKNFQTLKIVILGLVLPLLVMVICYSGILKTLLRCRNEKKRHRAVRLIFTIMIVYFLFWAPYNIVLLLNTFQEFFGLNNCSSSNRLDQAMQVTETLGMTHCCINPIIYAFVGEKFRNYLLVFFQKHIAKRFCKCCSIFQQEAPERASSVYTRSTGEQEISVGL

B1: Biotinylated CCL25 (Almac Sciences) (ligand, UniProt O15444 24-97, looked up)
chain: QGVFEDCCLAYHYPIGWAVLRRAWTYRIQEVSGSCNLPAAIFYLPKRHRKVCGNPKSREVQRAMKLLDARNKVF
modifications: biotinylated (site not stated); for the flow cytometry tests also Alexa647 Fluor labeled
notes: also called biotinylated and Alexa647 Fluor labeled CCL25; CCL25-coated sepharose beads
percent of CD4+ lymphocytes bound (Crohn's patient) [1]: ~90%
percent of CD8+ lymphocytes bound (Crohn's patient) [1]: ~80%
percent of monocytes bound (Crohn's patient) [1]: ~90%

B3: biotinylated and Alexa647 Fluor labeled eotaxin (Almac Sciences) (ligand)
chain: not shown
modifications: biotinylated and Alexa647 Fluor labeled (sites not given)
binding result [3]: binds

B5: biotinMDC (CCL22): MDC derivatised at Lys(66) with PEG-Biotin (ligand)
chain: GPYGANMEDSVCCRDYVRYRLPLRVVKHFYWTSDSCPRPGVVLLTFRDKEICADPRVPWVKMILNK([PEG-Biotin])LSQ-NH2
modifications: disulfide 12-36, 13-52; reading uncertain
EC50 (agonist activity, Aequorin assay) [5]: 4.5 nM

Now from value to binder:

EC50 (agonist activity, Aequorin assay) [2]: 11 nM
B2: biotinMIP-3b (CCL19): MIP-3b derivatised at Lys(78) with Biotin (ligand)
chain: GTNDAEDCCLSVTQKPIPGYIVRNFHYLLIKDGCRVPAVVFTTLRGRQLCAPPDQPWVERIIQRLQRTSAKMKRRSSX
modifications: X78 = K(Biotin), an additional C-terminal lysine; C-terminal amide

EC50 (agonist activity, Aequorin assay) [4]: 63.6 nM
B4: biotinTECK (Met to Nleu substitution): TECK derivatised at the epsilon-amino side chain of Lys72 with PEG-Biotin (ligand)
chain: [pGlu]GVFEDCCLAYHYPIGWAVLRRAWTYRIQEVSGSCNLPAAIFYLPKRHRKVCGNPKSREVQRA[Nle]KLLDARNK([PEG-Biotin])VF-OH
modifications: disulfide 7-35, 8-52; reading uncertain

percent reduction of chemokine receptor-expressing cells (CCR1, 3 or 5, not told apart) [6]: ~20%
percent reduction of chemokine receptor-expressing cells (CCR1, 3 or 5, not told apart) [7]: ~20%
EC50 (agonist activity, Aequorin assay) [8]: 0.5 nM
B6: biotinRANTES (CCL5): RANTES derivatised at Lys(67) with Biotin (ligand)
chain: SPYSSDTTPCCFAYIARPLPRAHIKEYFYTSGKCSNPAVVFVTRKNRQVCANPEKKWVREYINSLEK(Biotin)S-OH
modifications: disulfide 10-34, 11-50
notes: also called bRANTES; biotinylated RANTES

EC50 (partial agonist, Aequorin assay) (hCCR2b): 23.5 nM
B7: recombinant native MCP-2 (ligand, UniProt P80075 24-99, looked up)
chain: QPDSVSIPITCCFNVINRKIPIQRLESYTRITNIQCPKEAVIFKTKRGKEVCADPKERWVRDSMKHLDQIFQNLKP
